Experimental data: paper doi:10.1101/2020.01.09.899237

Target: DnaJB8ΔCTD (human)
Experiment: cross-linking

Chain of HspA1A (human Hsp70) (P0DMV8 whole entry): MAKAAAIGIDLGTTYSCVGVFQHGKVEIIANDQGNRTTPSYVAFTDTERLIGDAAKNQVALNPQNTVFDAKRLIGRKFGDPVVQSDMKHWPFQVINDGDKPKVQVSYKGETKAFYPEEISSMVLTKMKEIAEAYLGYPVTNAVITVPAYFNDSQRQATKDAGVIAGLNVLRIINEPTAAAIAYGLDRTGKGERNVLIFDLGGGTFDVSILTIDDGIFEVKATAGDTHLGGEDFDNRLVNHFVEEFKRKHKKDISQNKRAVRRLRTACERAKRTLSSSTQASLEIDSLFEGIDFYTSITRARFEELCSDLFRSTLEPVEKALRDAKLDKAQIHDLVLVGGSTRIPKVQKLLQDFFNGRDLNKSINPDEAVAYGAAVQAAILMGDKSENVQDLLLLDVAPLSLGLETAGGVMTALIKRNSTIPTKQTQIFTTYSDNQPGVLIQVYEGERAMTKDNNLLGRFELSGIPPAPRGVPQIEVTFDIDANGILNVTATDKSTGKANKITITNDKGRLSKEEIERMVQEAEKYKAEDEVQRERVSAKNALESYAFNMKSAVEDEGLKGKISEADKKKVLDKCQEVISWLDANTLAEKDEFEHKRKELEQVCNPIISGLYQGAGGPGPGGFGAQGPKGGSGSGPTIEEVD

“HspA1A (human Hsp70) (from UniProt P0DMV8 1-641) (natural protein)” showed a total crosslinks between the JD and HspA1A across three XL-MS experiments of 14 crosslinks.
